Target: the molecule itself
Test: single-molecule pull-down (SiMPull) with GFP photobleaching step counting; lysate of transfected HEK293 cells (0.4% CHAPS buffer) perfused over anti-GFP antibody on passivated coverslips; low surface density (0.05 molecules/µm^2); TIRF imaging

B1: GFP-tagged chloride channel ClC-3 (natural protein, UniProt P51790 1-818, looked up)
chain: MESEQLFHRGYYRNSYNSITSASSDEELLDGAGVIMDFQTSEDDNLLDGDTAVGTHYTMTNGGSINSSTHLLDLLDEPIPGVGTYDDFHTIDWVREKCKDRERHRRINSKKKESAWEMTKSLYDAWSGWLVVTLTGLASGALAGLIDIAADWMTDLKEGICLSALWYNHEQCCWGSNETTFEERDKCPQWKTWAELIIGQAEGPGSYIMNYIMYIFWALSFAFLAVSLVKVFAPYACGSGIPEIKTILSGFIIRGYLGKWTLMIKTITLVLAVASGLSLGKEGPLVHVACCCGNIFSYLFPKYSTNEAKKREVLSAASAAGVSVAFGAPIGGVLFSLEEVSYYFPLKTLWRSFFAALVAAFVLRSINPFGNSRLVLFYVEYHTPWYLFELFPFILLGVFGGLWGAFFIRANIAWCRRRKSTKFGKYPVLEVIIVAAITAVIAFPNPYTRLNTSELIKELFTDCGPLESSSLCDYRNDMNASKIVDDIPDRPAGIGVYSAIWQLCLALIFKIIMTVFTFGIKVPSGLFIPSMAIGAIAGRIVGIAVEQLAYYHHDWFIFKEWCEVGADCITPGLYAMVGAAACLGGVTRMTVSLVVIVFELTGGLEYIVPLMAAVMTSKWVGDAFGREGIYEAHIRLNGYPFLDAKEEFTHTTLAADVMRPRRNDPPLAVLTQDNMTVDDIENMINETSYNGFPVIMSKESQRLVGFALRRDLTIAIESARKKQEGIVGSSRVCFAQHTPSLPAESPRPLKLRSILDMSPFTVTDHTPMEIVVDIFRKLGLRQCLVTHNGRLLGIITKKDILRHMAQTANQDPASIMFN
notes: chloride channel ClC-3 from plasmid pCLC3sGFP (Addgene); also called ClC-3-GFP; pCLC3sGFP; source: HEK293, transfected, in lysate (CHAPS buffer)
  stoichiometry N: 2

B2: transient outward potassium channel Kv4.3 tagged with GFP (natural protein, UniProt Q9UK17 1-655, looked up)
chain: MAAGVAAWLPFARAAAIGWMPVANCPMPLAPADKNKRQDELIVLNVSGRRFQTWRTTLERYPDTLLGSTEKEFFFNEDTKEYFFDRDPEVFRCVLNFYRTGKLHYPRYECISAYDDELAFYGILPEIIGDCCYEEYKDRKRENAERLMDDNDSENNQESMPSLSFRQTMWRAFENPHTSTLALVFYYVTGFFIAVSVITNVVETVPCGTVPGSKELPCGERYSVAFFCLDTACVMIFTVEYLLRLFAAPSRYRFIRSVMSIIDVVAIMPYYIGLVMTNNEDVSGAFVTLRVFRVFRIFKFSRHSQGLRILGYTLKSCASELGFLLFSLTMAIIIFATVMFYAEKGSSASKFTSIPASFWYTIVTMTTLGYGDMVPKTIAGKIFGSICSLSGVLVIALPVPVIVSNFSRIYHQNQRADKRRAQKKARLARIRVAKTGSSNAYLHSKRNGLLNEALELTGTPEEEHMGKTTSLIESQHHHLLHCLEKTTGLSYLVDDPLLSVRTSTIKNHEFIDEQMFEQNCMESSMQNYPSTRSPSLSSHPGLTTTCCSRRSKKTTHLPNSNLPATRLRSMQELSTIHIQGSEQPSLTTSRSSLNLKADDGLRPNCKTSQITTAIISIPTPPALTPEGESRPPPASPGPNTNIPSIASNVVKVSAL
notes: potassium channel Kv4.3 from plasmid pcDNA3.1-Kv4.3-GFP; also called Kv4.3-GFP; pcDNA3.1-Kv4.3-GFP; source: HEK293, transfected, in lysate (CHAPS buffer)
  stoichiometry N: 4

— publication PMC5727259, “Voltage-gated sodium channels assemble and gate as dimers” (Nature Communications, 2017)
